Data as given in PMC3526787, “Structures of Lysenin Reveal a Shared Evolutionary Origin for Pore-Forming Proteins And Its Mode of Sphingomyelin Recognition” (Structure(London, England:1993), 2012).

Target: the molecule itself
Assay: 2D electron crystallography; lysenin in a lipid bilayer (liposomes containing SM); 2D crystals, trigonal array with space group p3, projection map at 14 Å

B1: lysenin (natural protein)
chain: MSAKAAEGYEQIEVDVVAVWKEGYVYENRGSTSVDQKITITKGMKNVNSETRTVTATHSIGSTISTGDAFEIGSVEVSYSHSHEESQVSMTETEVYESKVIEHTITIPPTSKFTRWQLNADVGGADIEYMYLIDEVTPIGGTQSIPQVITSRAKIIVGRQIILGKTEIRIKHAERKEYMTVVSRKSWPAATLGHSKLFKFVLYEDWGGFRIKTLNTMYSGYEYAYSSDQGGIYFDQGTDNPKQRWAINKSLPLRHGDVVTFMNKYFTRSGLCYDDGPATNVYCLDKREDKWILEVVG
notes: A thrombin cleavage site and six histidines follow the C terminus (printed as …); also called WT lysenin; native lysenin; source: E. coli BL21, purified (Ni-NTA IMAC, SEC)
binding result: binds
